# Reference: paper PMC9122595
# B1: S2 (dsDNA)
# DNA 1: GGGCACAGACATTTTAATCA
# DNA 2: TGATTAAAATGTCTGTGCCC
# B2: CDC6 probe (dsDNA)
# DNA 1: CGCTCCCCGGCCATCTTGGCGGCTGGT
# DNA 2: ACCAGCCGCCAAGATGGCCGGGGAGCG
# B3: S4 (dsDNA)
# DNA 1: TGGTGCCGACATTTTTTTTC
# DNA 2: GAAAAAAAATGTCGGCACCA
# B4: S3 (dsDNA)
# DNA 1: CTTGTCTGCCATTGTATCTT
# DNA 2: AAGATACAATGGCAGACAAG
# B5: S5M (dsDNA)
# DNA 1: GCTTTCTTCGGGCTTGAAAA
# DNA 2: TTTTCAAGCCCGAAGAAAGC
# B6: S2M (dsDNA)
# DNA 1: GGGCACAGAGGGTTTAATCA
# DNA 2: TGATTAAACCCTCTGTGCCC
# B7: S1 (dsDNA)
# DNA 1: ATGATAAGCCATGATCACAC
# DNA 2: GTGTGATCATGGCTTATCAT
# B8: S5 (dsDNA)
# DNA 1: GCTTTCTTCCATCTTGAAAA
# DNA 2: TTTTCAAGATGGAAGAAAGC
# B9: S4M (dsDNA)
# DNA 1: TGGTGCCGAGGGTTTTTTTC
# DNA 2: GAAAAAAACCCTCGGCACCA
# Biological target: T1, His6-YY1 (UniProt P25490 1-414)
# Experiment: EMSA
# T1 sequence (P25490 whole entry): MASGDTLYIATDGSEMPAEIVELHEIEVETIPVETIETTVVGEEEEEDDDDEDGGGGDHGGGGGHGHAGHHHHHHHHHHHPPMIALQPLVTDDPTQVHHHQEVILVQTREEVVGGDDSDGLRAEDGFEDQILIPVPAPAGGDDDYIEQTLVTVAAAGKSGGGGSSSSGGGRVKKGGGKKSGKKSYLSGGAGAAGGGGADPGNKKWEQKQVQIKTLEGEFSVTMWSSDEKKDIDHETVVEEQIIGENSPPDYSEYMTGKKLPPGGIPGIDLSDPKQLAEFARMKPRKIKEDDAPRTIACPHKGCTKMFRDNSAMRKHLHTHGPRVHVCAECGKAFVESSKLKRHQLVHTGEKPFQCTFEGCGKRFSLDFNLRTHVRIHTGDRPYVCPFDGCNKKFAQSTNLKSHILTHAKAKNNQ
row,Binder,binding result
1,B1,binds
2,B2,binds

# Biological target: T1, His6-YY1
# Experiment: competition
row,Binder,binding result
1,B3,binds
2,B4,no binding
3,B5,no binding
4,B6,no binding
5,B7,no binding
6,B8,binds
7,B9,no binding
